Experimental data reported in article doi:10.1101/2020.03.26.992446.

T1: purified DJ-1 WT (N-terminal 6×His-tagged) (human), Q99497
T1 chain: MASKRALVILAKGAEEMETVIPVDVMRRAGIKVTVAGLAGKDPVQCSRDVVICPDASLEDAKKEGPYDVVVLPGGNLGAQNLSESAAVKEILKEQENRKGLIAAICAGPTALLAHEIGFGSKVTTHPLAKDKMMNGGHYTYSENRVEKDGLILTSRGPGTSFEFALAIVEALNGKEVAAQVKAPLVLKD


What was measured:
[1] = target: purified DJ-1 V51C (N-terminal 6×His-tagged) (human) (UniProt Q99497); experiment: SEC
[2] = target: T1, purified DJ-1 WT (N-terminal …); experiment: SEC; details: remark: other sources report otherwise

| Molecule | percent of protein that is dimer [1] [%] | percent of protein that is dimer [2] [%] | stoichiometry N [2] |
| --- | --- | --- | --- |
| purified DJ-1 V51C (N-terminal 6×His-tagged) (from UniProt Q99497 1-189) (natural protein) | 15 | – | – |
| purified DJ-1 WT (N-terminal 6×His-tagged), Q99497 1-189 (natural protein) MASKRALVILAKGAEEMETVIPVDVMRRAGIKVTVAGLAGKDPVQCSRDVVICPDASLEDAKKEGPYDVVVLPGGNLGAQNLSESAAVKEILKEQENRKGLIAAICAGPTALLAHEIGFGSKVTTHPLAKDKMMNGGHYTYSENRVEKDGLILTSRGPGTSFEFALAIVEALNGKEVAAQVKAPLVLKD | – | 33 | 2 |
